T1: APBA2_1, Q99767
T1 sequence (Q99767 563-664, limits assumed, looked up): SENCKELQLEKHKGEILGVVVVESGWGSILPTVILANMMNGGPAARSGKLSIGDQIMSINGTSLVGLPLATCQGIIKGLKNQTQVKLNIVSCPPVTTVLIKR

T2: APBA2_2, Q99767
T2 sequence (Q99767 654-744, limits assumed, looked up): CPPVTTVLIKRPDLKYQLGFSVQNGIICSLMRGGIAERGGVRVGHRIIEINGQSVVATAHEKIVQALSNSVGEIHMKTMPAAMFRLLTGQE

T3: CARD11, Q9BXL7
T3 sequence (Q9BXL7 662-765, limits assumed, looked up): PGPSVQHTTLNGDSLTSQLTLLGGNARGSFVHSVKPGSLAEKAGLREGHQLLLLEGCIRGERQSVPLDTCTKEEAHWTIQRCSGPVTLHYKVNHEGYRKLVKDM

T4: DVL3, Q92997
T4 sequence (Q92997 244-331, limits assumed, looked up): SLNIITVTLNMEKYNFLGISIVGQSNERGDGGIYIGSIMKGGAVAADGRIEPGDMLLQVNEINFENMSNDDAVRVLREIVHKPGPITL

T5: FRMPD1, Q5SYB0
T5 sequence (Q5SYB0 52-145, limits assumed, looked up): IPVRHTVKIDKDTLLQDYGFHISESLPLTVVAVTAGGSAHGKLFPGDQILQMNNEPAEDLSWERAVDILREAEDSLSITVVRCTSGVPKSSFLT

T6: GRIP1_7, Q9Y3R0
T6 sequence (Q9Y3R0 999-1096, limits assumed, looked up): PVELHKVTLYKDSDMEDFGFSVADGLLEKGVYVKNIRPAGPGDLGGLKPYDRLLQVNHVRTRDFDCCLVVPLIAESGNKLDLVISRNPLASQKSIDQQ

T7: HTRA4, P83105
T7 sequence (P83105 378-476, limits assumed, looked up): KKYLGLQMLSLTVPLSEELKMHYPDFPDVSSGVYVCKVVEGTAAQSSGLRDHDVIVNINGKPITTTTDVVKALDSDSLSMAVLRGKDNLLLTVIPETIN

T8: LNX2_2, Q8N448
T8 sequence (Q8N448 334-432, limits assumed, looked up): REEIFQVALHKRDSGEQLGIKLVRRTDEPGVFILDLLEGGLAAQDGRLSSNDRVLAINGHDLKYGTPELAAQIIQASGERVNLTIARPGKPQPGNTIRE

T9: MPDZ_12, O75970
T9 sequence (O75970 1857-1958, limits assumed, looked up): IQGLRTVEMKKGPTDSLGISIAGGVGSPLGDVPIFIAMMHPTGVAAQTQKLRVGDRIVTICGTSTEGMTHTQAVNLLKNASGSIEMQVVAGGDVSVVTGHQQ

T10: MPP2, Q14168
T10 sequence (Q14168 180-250, limits assumed, looked up): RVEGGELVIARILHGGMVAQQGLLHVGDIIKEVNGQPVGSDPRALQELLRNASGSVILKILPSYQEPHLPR

T11: MPP7, Q5T2T1
T11 sequence (Q5T2T1 134-230, limits assumed, looked up): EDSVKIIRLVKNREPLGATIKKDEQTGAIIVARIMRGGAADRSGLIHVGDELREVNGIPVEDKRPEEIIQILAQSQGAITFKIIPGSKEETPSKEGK

T12: NHERF3_3, Q5T2W1
T12 sequence (Q5T2W1 238-333, limits assumed, looked up): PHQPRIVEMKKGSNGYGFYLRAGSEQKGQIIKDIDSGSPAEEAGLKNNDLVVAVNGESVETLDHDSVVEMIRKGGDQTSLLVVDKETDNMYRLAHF

T13: PDZD7_3, Q9H5P4
T13 sequence (Q9H5P4 857-944, limits assumed, looked up): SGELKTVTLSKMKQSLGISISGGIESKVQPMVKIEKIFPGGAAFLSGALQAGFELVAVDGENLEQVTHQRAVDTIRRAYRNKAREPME

T14: SNTG1, Q9NSN8
T14 sequence (Q9NSN8 52-150, limits assumed, looked up): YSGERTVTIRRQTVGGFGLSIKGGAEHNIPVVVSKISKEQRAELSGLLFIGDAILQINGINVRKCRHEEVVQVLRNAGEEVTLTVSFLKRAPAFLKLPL

T15: TIAM2, Q8IVF5
T15 sequence (Q8IVF5 885-986, limits assumed, looked up): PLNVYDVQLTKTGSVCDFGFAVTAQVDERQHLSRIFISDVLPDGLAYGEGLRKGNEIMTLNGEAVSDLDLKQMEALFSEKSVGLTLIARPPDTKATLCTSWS


Columns and labels:
Test in all cases: holdup assay
Parameters in all cases: key: below the threshold = too weak to quantify, mostly under pKd 3.1 to 4
Conditions in all cases: plain residues with an end cap or a label only (N-terminal biotin on a linker: ado-ado)
AHNAK1, Q09666 = molecular target: AHNAK1, Q09666
APBA2_1, Q99767 = molecular target: T1, APBA2_1, Q99767
APBA2_2, Q99767 = molecular target: T2, APBA2_2, Q99767
ARHGEF12, Q9NZN5-2 = molecular target: ARHGEF12, Q9NZN5-2
CARD11, Q9BXL7 = molecular target: T3, CARD11, Q9BXL7
DVL3, Q92997 = molecular target: T4, DVL3, Q92997
FRMPD1, Q5SYB0 = molecular target: T5, FRMPD1, Q5SYB0
GRIP1_7, Q9Y3R0 = molecular target: T6, GRIP1_7, Q9Y3R0
GRIP2_3, Q9C0E4 = molecular target: GRIP2_3, Q9C0E4
HTRA4, P83105 = molecular target: T7, HTRA4, P83105
Inadl_3, Q8NI35 = molecular target: Inadl_3, Q8NI35
LIMK2, P53671 = molecular target: LIMK2, P53671
LNX2_2, Q8N448 = molecular target: T8, LNX2_2, Q8N448
MAST2, Q6P0Q8 = molecular target: MAST2, Q6P0Q8
MPDZ_12, O75970 = molecular target: T9, MPDZ_12, O75970
MPP2, Q14168 = molecular target: T10, MPP2, Q14168
MPP7, Q5T2T1 = molecular target: T11, MPP7, Q5T2T1
NHERF3_3, Q5T2W1 = molecular target: T12, NHERF3_3, Q5T2W1
PDZD7_3, Q9H5P4 = molecular target: T13, PDZD7_3, Q9H5P4
SCRIB_1, Q14160 = molecular target: SCRIB_1, Q14160
SNTG1, Q9NSN8 = molecular target: T14, SNTG1, Q9NSN8
TIAM2, Q8IVF5 = molecular target: T15, TIAM2, Q8IVF5
TJP1_2, Q07157 = molecular target: TJP1_2, Q07157
TJP1_2, Q07157, sequence (Q07157 181-274): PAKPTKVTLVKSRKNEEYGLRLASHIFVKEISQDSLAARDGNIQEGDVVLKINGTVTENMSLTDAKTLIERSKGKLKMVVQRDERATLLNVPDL

ARHGEF12, Q9NZN5-2, sequence (Q9NZN5 other isoform, or with tags, fused parts or gaps): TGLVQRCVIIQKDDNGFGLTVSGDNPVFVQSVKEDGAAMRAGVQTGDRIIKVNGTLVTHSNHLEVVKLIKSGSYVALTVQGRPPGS
MAST2, Q6P0Q8, sequence (Q6P0Q8 1099-1202): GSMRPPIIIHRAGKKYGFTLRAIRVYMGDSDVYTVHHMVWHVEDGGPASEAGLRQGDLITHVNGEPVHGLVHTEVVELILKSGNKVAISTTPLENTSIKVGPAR
GRIP2_3, Q9C0E4, sequence (Q9C0E4 238-339): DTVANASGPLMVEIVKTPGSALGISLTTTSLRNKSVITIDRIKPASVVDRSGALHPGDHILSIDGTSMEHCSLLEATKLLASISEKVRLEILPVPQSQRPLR
LIMK2, P53671, sequence (P53671 143-248): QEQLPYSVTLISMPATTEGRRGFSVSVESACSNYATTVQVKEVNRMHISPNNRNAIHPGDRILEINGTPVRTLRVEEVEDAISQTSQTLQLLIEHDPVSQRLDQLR
SCRIB_1, Q14160, sequence (Q14160 718-814): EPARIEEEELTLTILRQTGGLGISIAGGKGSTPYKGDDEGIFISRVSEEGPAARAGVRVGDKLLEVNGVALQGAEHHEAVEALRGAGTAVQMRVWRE
AHNAK1, Q09666, sequence (Q09666 4-100): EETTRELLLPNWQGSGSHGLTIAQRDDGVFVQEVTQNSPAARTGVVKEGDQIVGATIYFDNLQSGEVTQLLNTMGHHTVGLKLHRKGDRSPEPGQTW
Inadl_3, Q8NI35, sequence (Q8NI35 359-469): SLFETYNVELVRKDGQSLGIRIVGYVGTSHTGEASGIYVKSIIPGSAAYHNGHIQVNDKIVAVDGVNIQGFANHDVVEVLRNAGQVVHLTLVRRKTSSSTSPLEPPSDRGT

Binder | pKd (AHNAK1, Q09666) | pKd (APBA2_1, Q99767) | pKd (APBA2_2, Q99767) | pKd (ARHGEF12, Q9NZN5-2) | pKd (CARD11, Q9BXL7) | pKd (DVL3, Q92997) | pKd (FRMPD1, Q5SYB0) | pKd (GRIP1_7, Q9Y3R0) | pKd (GRIP2_3, Q9C0E4) | pKd (HTRA4, P83105) | pKd (Inadl_3, Q8NI35) | pKd (LIMK2, P53671) | pKd (LNX2_2, Q8N448) | pKd (MAST2, Q6P0Q8) | pKd (MPDZ_12, O75970) | pKd (MPP2, Q14168) | pKd (MPP7, Q5T2T1) | pKd (NHERF3_3, Q5T2W1) | pKd (PDZD7_3, Q9H5P4) | pKd (SCRIB_1, Q14160) | other results
SQPLLVHDDV [KIT, P10721] | below the threshold | below the threshold | below the threshold | below the threshold | below the threshold | below the threshold | below the threshold | below the threshold | below the threshold | 3.88 | below the threshold | below the threshold | below the threshold | below the threshold | below the threshold | below the threshold | below the threshold | below the threshold | below the threshold | below the threshold | pKd (SNTG1, Q9NSN8): below the threshold; pKd (TIAM2, Q8IVF5): below the threshold; pKd (TJP1_2, Q07157): 3.5
EFKQTSSFLV [JAM1, Q9Y624] | below the threshold | below the threshold | below the threshold | below the threshold | below the threshold | below the threshold | below the threshold | below the threshold | below the threshold | 4.05 | 4.65 | below the threshold | 5.22 | below the threshold | below the threshold | below the threshold | 3.74 | below the threshold | 4.03 | below the threshold | pKd (SNTG1, Q9NSN8): below the threshold; pKd (TIAM2, Q8IVF5): 4.14; pKd (TJP1_2, Q07157): 4.01
DFKHTKSFII [JAM2, P57087] | below the threshold | below the threshold | below the threshold | below the threshold | below the threshold | 3.67 | below the threshold | below the threshold | below the threshold | 3.79 | 4.45 | below the threshold | 4.7 | below the threshold | below the threshold | below the threshold | 3.75 | below the threshold | below the threshold | below the threshold | pKd (SNTG1, Q9NSN8): below the threshold; pKd (TIAM2, Q8IVF5): 4.19; pKd (TJP1_2, Q07157): below the threshold
